Experimental findings from article PMC13228514, “The protocadherin-15-LHFPL5 tip link complex is a heterotetrameric assembly in hair cell stereocilia” (Biophysical Journal, 2026) are described below.

Data set [1] concerns the molecule itself. The data set is described as follows: single-molecule pull-down (SiMPull); purified co-expressed recombinant PCDH15/LHFPL5 complex (100 pM) captured on slide by biotinylated anti-PCDH15 mAb 8D1; detected with 39G7 Fab-GFP and anti-LHFPL5 mAb-Alexa647 (colocalization) or with 39G7 Fab-GFP or anti-LHFPL5 Fab-GFP (photobleaching steps); TIRF; buffer with 0.005% C12M, 0.001% CHS, pH 8.0.

Data set [2] concerns the molecule itself. In words: single-molecule pull-down (SiMPull); solubilized cochlea supernatant of P6 mice applied to slide coated with anti-PCDH15 mAb 8D1; detected with 39G7 Fab-GFP and anti-LHFPL5 mAb-Alexa647 (colocalization) or with 39G7 Fab-GFP or anti-LHFPL5 Fab-GFP (photobleaching steps); TIRF.

B1: recombinant lipoma HMGIC fusion partner-like protein 5 (LHFPL5), residues 2-219 (natural protein, Mus musculus, UniProt Q4KL25 2-219, looked up)
chain: VKLLPAQEAAKIYHTNYVRNSRAVGVMWGTLTICFSVLVMALFIQPYWIGDSVSTPQAGYFGLFSYCVGNVLSSELICKGGPLDFSSIPSRAFKTAMFFVALAMFLIIGSIICFSLFFVCNTATVYKICAWMQLAAATGLMIGCLVYPDGWDSSEVRRMCGEQTGKYTLGHCTIRWAFMLAILSIGDALILSFLAFVLGYRQDKLLPDDYKADGNEEV
notes: the results call the construct the full-length protein; also called TMHS; recombinant LHFPL5; source: HEK293 tsa201 cells co-infected with PCDH15 (or PCDH15_(1EC)) and LHFPL5 BacMam viruses; purified as a complex (Strep-Tactin, TALON, SEC)
As to B1, the “stoichiometry N” value in data set [1] came out at 2.

B2: native lipoma HMGIC fusion partner-like protein 5 (LHFPL5) from mouse cochlea or utricle (natural protein, UniProt Q4KL25 1-219, looked up)
chain: MVKLLPAQEAAKIYHTNYVRNSRAVGVMWGTLTICFSVLVMALFIQPYWIGDSVSTPQAGYFGLFSYCVGNVLSSELICKGGPLDFSSIPSRAFKTAMFFVALAMFLIIGSIICFSLFFVCNTATVYKICAWMQLAAATGLMIGCLVYPDGWDSSEVRRMCGEQTGKYTLGHCTIRWAFMLAILSIGDALILSFLAFVLGYRQDKLLPDDYKADGNEEV
notes: LHFPL5 (TMHS), mouse, endogenous in inner ear tissue; also called native LHFPL5; TMHS; source: endogenous, cochlea or utricle of P6 mice, solubilized (1% C12M, 0.2% CHS), supernatant
As for B2, the “stoichiometry N” value in data set [2] worked out at 2.

B3: recombinant protocadherin-15 (PCDH15), residues 1-1462 (EC1-EC11 and part of the cytoplasmic region) (domain or fragment)
chain: not shown
notes: signal peptide in the construct; also called recombinant PCDH15; source: HEK293 tsa201 cells co-infected with PCDH15 and LHFPL5 BacMam viruses; purified as a complex with LHFPL5 (Strep-Tactin, TALON, SEC)
Consider B3, for which, in data set [1], the “stoichiometry N” value came to 2.

B4: native protocadherin-15 (PCDH15) from mouse cochlea or utricle (natural protein)
chain: not shown
notes: protocadherin-15, mouse, endogenous in inner ear tissue; also called native PCDH15; source: endogenous, cochlea or utricle of P6 mice, solubilized (1% C12M, 0.2% CHS), supernatant
B4: the “stoichiometry N” value in data set [2] was determined as 2.

For orientation: stoichiometry N means a count of units in the complex or per binding partner.
